Source: patent publication US20200038462A1, “METHODS AND COMPOSITIONS OF OTC CONSTRUCTS AND VECTORS” (priority 2018, published 2020)

B1: CO9-2: hOTC construct; CO9 re-optimized by IDT, SEQ ID NO:10 (nucleic acid)
DNA: GTCGACGCCGCCACCATGCTCTTCAATCTCCGAATACTCCTGAATAATGCGGCATTCAGAAATGGGCACAATTTTATGGTGCGAAATTTTCGATGTGGGCAGCCCTTGCAAAATAAAGTACAACTTAAAGGCAGAGATCTTCTTACGCTCAAAAACTTTACCGGCGAAGAGATTAAGTATATGTTGTGGCTGTCTGCTGACCTTAAATTCCGAATAAAACAGAAAGGCGAATACCTTCCGCTCCTCCAAGGGAAATCTCTTGGGATGATTTTCGAGAAGAGATCTACGCGCACGCGGCTTTCAACGGAAACTGGATTCGCACTCTTGGGCGGCCACCCATGTTTTCTGACTACTCAAGATATTCACTTGGGAGTAAATGAGTCACTTACTGACACGGCAAGAGTGCTCTCTAGCATGGCTGATGCAGTGCTGGCTAGAGTCTATAAACAATCCGACCTGGATACACTCGCCAAGGAAGCTTCAATACCAATAATCAACGGGTTGTCTGACTTGTACCACCCTATCCAAATCTTGGCCGATTATTTGACACTCCAGGAACACTACTCAAGTCTGAAGGGACTTACGCTTAGCTGGATAGGTGATGGTAACAACATCCTTCATAGCATTATGATGTCAGCCGCCAAATTCGGCATGCATCTGCAAGCAGCGACTCCCAAGGGCTATGAGCCTGATGCCTCAGTCACCAAACTGGCGGAGCAGTACGCTAAAGAGAATGGGACGAAGCTTTTGCTGACGAACGATCCCCTGGAGGCGGCTCACGGGGGAAATGTGCTTATCACGGATACCTGGATAAGTATGGGGCAGGAGGAAGAAAAAAAAAAGCGATTGCAAGCCTTTCAAGGTTACCAGGTTACAATGAAAACTGCGAAAGTCGCCGCATCTGACTGGACTTTTCTGCACTGTCTTCCGAGAAAGCCGGAAGAGGTGGACGACGAAGTGTTCTACTCTCCGCGCTCTCTCGTGTTTCCTGAAGCAGAGAACCGAAAGTGGACCATAATGGCGGTAATGGTCAGCCTCTTGACTGATTATTCCCCTCAGCTGCAGAAGCCAAAGTTTTGATAAGAATTC
B2: CO6-1: hOTC construct; CO6 re-optimized by GeneArt, SEQ ID NO:6 (nucleic acid)
DNA: GTCGACGCCGCCACCATGCTGTTCAACCTGCGGATCCTGCTGAACAACGCCGCCTTCAGAAACGGCCACAACTTCATGGTCCGAAACTTCAGATGCGGCCAGCCTCTGCAGAACAAGGTGCAGCTGAAGGGCAGAGATCTGCTGACCCTGAAGAACTTCACCGGCGAAGAGATCAAATACATGCTGTGGCTGAGCGCCGACCTGAAGTTCCGGATTAAGCAGAAGGGCGAGTACCTGCCACTGCTGCAGGGAAAGTCTCTGGGCATGATCTTCGAGAAGCGGAGCACCAGAACCAGACTGAGCACCGAGACAGGCTTTGCCCTGCTCGGAGGACACCCCTGCTTTCTGACAACACAGGATATCCACCTGGGCGTGAACGAGAGCCTGACCGATACAGCCAGAGTGCTGAGCAGCATGGCTGATGCCGTGCTGGCCAGAGTGTACAAGCAGAGCGATCTGGACACCCTGGCCAAAGAGGCCAGCATTCCCATCATCAACGGCCTGAGCGACCTGTATCACCCCATCCAGATCCTGGCCGACTACCTGACACTGCAAGAGCACTACAGCAGCCTGAAGGGACTGACCCTGTCTTGGATCGGCGACGGCAACAACATCCTGCACTCTATTATGATGAGCGCCGCCAAGTTCGGAATGCACCTGCAGGCCGCTACACCCAAGGGCTATGAGCCTGATGCCAGCGTGACAAAGCTGGCCGAGCAGTACGCCAAAGAGAACGGCACAAAGCTGCTGCTGACCAACGATCCCCTGGAAGCTGCCCACGGCGGCAATGTGCTGATCACCGATACCTGGATCTCTATGGGCCAAGAGGAAGAGAAGAAGAAGCGGCTGCAGGCCTTCCAGGGCTACCAAGTGACAATGAAGACCGCCAAGGTGGCCGCCAGCGATTGGACCTTTCTGCACTGCCTGCCTCGGAAGCCTGAAGAGGTGGACGACGAGGTGTTCTACAGCCCTAGAAGCCTGGTGTTCCCCGAGGCCGAGAACAGAAAGTGGACCATCATGGCTGTGATGGTGTCCCTGCTGACCGACTACTCTCCCCAGCTGCAGAAGCCCAAGTTCTGATAAGAATTC
B3: CO9-1: hOTC construct; CO9 re-optimized by GeneArt, SEQ ID NO:9 (nucleic acid)
DNA: GTCGACGCCGCCACCATGCTGTTTAATCTGAGAATCCTGCTGAACAATGCTGCTTTCCGCAATGGGCACAACTTTATGGTCCGAAACTTCCGATGTGGACAGCCTCTGCAGAACAAGGTGCAGCTGAAGGGCCGGGACCTGCTGACCCTGAAGAATTTCACAGGCGAGGAGATCAAATACATGCTGTGGCTGAGCGCCGATCTGAAGTTTAGGATCAAGCAGAAGGGCGAGTATCTGCCACTGCTGCAGGGCAAGTCCCTGGGCATGATCTTCGAGAAGCGGAGCACCCGGACAAGACTGAGCACCGAGACAGGATTCGCACTGCTGGGAGGACACCCATGCTTTCTGACAACACAGGACATCCACCTGGGCGTGAACGAGTCTCTGACCGACACAGCACGGGTGCTGAGCTCCATGGCAGATGCCGTGCTGGCCAGAGTGTACAAGCAGAGCGACCTGGATACCCTGGCCAAGGAGGCCTCCATCCCCATCATCAATGGCCTGTCTGACCTGTATCACCCAATCCAGATCCTGGCCGATTACCTGACCCTGCAGGAGCACTATTCTAGCCTGAAGGGCCTGACACTGAGCTGGATCGGCGACGGCAACAATATCCTGCACAGCATCATGATGTCCGCCGCCAAGTTTGGAATGCACCTGCAGGCAGCAACCCCAAAGGGATACGAGCCCGATGCCTCCGTGACAAAGCTGGCCGAGCAGTATGCCAAGGAGAACGGCACCAAGCTGCTGCTGACAAATGACCCACTGGAGGCAGCACACGGAGGAAACGTGCTGATCACCGATACATGGATCTCTATGGGCCAGGAGGAGGAGAAGAAGAAGCGGCTGCAGGCCTTCCAGGGCTACCAGGTGACCATGAAGACAGCCAAGGTGGCCGCCTCTGATTGGACCTTTCTGCACTGTCTGCCCCGGAAGCCTGAGGAGGTGGACGATGAGGTGTTCTATTCCCCTCGGAGCCTGGTGTTCCCAGAGGCAGAGAATCGCAAGTGGACAATCATGGCCGTGATGGTCTCCCTGCTGACTGACTACTCCCCACAGCTGCAGAAGCCCAAGTTTTGATAAGAATTC

system: HUH7 hepatocellular carcinoma cell line; assay: OTC protein expression in transfected HUH7 cells, Western blot; type: cell-based, human; settings: FIGS. 14-15
From the text: The wt-hOTC was codon-optimized (CO) with different algorithms. The optimization process is aimed at improving translation and stability of the OTC mRNA by changing the nucleotide sequence while keeping the amino acid primary sequence unvaried. The wild-type OTC cDNA sequence and the codon-optimized (CO) LW4 sequence from WO 2015/138357 patent A2 (Wang L., Wilson J. M.) were also synthesized, to be used as comparison control (CO1). The nucleotide sequence of the different CO cDNAs differs with a range of 30-20% from the WT cDNA sequence. The vectors were then packaged into the AAV8 serotype and used to transduce Huh7 cells. Huh7 cells, co-transfected with the OTC constructs and the pGG2-eGFP plasmid (to normalize for transfection efficiency), were used to generate total RNA and proteins. mRNA, protein, and activity levels were analyzed using qRT-PCR and Western blotting.
The human hepatocellular carcinoma cell line HUH7 was used to evaluate the expression levels of AAV8-hOTC-CO constructs. The AAV8-hOTC-CO1 (C01), AAV8-hOTC-CO2 (CO2), AAV8-hOTC-CO3 (CO3), AAV8-hOTC-006 (CO6), AAV8-hOTC-CO7 (CO7), AAV8-hOTC-009 (CO9) construct plasmids, together with a pGFP plasmid as an internal control, were transiently co-transfected in HUH7 cells with Lipofectamine (Lipofectamine 2000, Thermo Fisher Scientific). Twenty-four hours post-transfection, total protein lysates were prepared and analyzed for OTC expression by Western blot analysis.

Molecule	OTC protein expression levels compared to hOTC-wt (in words)
B1	significantly reduced
B2	significantly reduced
B3	significantly reduced
